The values below come from patent US20030236190A1 (published 2003).

No end group written: not given here.

The target in experiment [1] is T1, human insulin receptor (HIR), purified from transfected cells after solubilization with Triton X-100 (human, UniProt P06213 28-1382, limits assumed).
T1 construct: also called WGA-purified recombinant human insulin receptor
The experiment is described as follows: 125I-insulin competition on HIR.

Experiment [2] concerns the target T2, soluble HIR ectodomain (sIR) (human, UniProt P06213-2 28-944, limits assumed).
T2 construct: extracellular domain
The experiment is described as follows: FP competition vs FITC-RP9, sIR. The text has this: Fluorescence polarization assays (FP) were used for peptide competition studies.

Experiment [3] concerns the target T3, soluble human insulin receptor-immunoglobulin heavy chain chimera (sIR-Fc) (human, UniProt P06213 28-956, limits assumed, Eu3+ label (LANCE) in the TR-FRET assays).
T3 construct: extracellular domain; construct of Bass et al., 1996; also called HIR-immunoglobulin heavy chain chimera; not shown: immunoglobulin heavy chain constant domains
The experiment in a line: FP competition vs FITC-RP9, sIR-Fc.

Experiment [4] concerns the target T3, soluble human insulin …. The experiment in a line: TR-FRET competition vs b-RP9, sIR-Fc. The text has this: Time-resolved fluorescence resonance energy transfer assays (TR-FRET) were used for peptide competition studies.
This was used to determine IC₅₀ values.
(In general: TR-FRET usually uses a lanthanide donor and a delayed reading to cut background.)

Experiment [5] concerns the target T3, soluble human insulin …. The experiment is described as follows: TR-FRET competition vs b-S175, sIR-Fc. The method, then:
(§1) The TR-FRET assays were performed in a 384-well white microplate with a final volume of 30 μl.

Experiment [6] deals with T4, human insulin receptor (HIR) (human, UniProt P06213 28-1382, limits assumed). The experiment in a line: RRA, 125I-insulin competition, HIR.
The target in experiment [7] is T3, soluble human insulin …. The experiment in a line: TR-FRET competition vs b-S175, sIR-Fc (column as given). On the procedure: as §1
Experiment [8] addresses human IGF-1 receptor (HIGF-1R) (human, UniProt P08069 31-1367). The experiment is described as follows: 125I-IGF-1 competition, solubilised HIGF-1R.
The target in experiment [9] is T4, human insulin receptor (HIR). The experiment is described as follows: 125I-insulin competition, solubilised HIR.
The target in experiment [10] is insulin receptor (IR) on mouse free fat cells (mouse, UniProt P15208 28-1372). The experiment in a line: cell-based or functional assay.
Sequence of insulin receptor (IR) on mouse free fat cells (P15208 28-1372): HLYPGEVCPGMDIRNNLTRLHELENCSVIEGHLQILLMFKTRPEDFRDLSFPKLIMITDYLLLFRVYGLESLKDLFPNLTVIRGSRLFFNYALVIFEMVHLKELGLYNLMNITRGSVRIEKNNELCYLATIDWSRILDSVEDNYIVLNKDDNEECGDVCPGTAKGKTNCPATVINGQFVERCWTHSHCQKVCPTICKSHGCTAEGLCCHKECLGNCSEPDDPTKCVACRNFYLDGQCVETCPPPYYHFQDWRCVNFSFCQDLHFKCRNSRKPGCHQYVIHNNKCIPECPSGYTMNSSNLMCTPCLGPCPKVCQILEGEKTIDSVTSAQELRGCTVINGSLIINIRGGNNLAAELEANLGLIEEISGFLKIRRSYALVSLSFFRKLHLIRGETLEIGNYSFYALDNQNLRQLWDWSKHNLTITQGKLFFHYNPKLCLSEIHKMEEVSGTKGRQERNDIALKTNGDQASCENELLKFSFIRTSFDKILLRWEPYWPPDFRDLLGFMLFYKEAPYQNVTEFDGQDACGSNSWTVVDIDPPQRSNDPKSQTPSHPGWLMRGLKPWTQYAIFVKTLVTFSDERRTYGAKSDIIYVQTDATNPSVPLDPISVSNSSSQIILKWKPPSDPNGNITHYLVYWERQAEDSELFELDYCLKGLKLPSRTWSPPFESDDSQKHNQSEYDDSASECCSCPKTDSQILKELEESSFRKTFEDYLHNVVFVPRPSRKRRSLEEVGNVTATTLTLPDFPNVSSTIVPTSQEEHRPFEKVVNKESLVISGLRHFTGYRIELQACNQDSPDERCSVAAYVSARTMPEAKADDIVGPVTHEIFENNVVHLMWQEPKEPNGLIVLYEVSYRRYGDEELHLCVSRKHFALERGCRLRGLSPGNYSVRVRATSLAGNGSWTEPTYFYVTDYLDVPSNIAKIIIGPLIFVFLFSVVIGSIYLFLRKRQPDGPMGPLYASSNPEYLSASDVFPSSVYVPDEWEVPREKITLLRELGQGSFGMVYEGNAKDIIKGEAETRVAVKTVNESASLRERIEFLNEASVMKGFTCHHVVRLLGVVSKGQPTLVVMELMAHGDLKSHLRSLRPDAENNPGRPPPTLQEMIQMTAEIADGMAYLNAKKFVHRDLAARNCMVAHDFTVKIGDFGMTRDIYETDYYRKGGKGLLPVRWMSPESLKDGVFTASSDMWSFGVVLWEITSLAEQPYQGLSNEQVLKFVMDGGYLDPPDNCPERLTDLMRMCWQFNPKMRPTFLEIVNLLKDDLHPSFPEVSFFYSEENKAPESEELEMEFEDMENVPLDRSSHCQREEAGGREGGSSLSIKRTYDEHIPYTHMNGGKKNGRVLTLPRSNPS

B1: S374: 17-(Ald-GSLDESFYDWFERQLGKK)2 (peptide)
peptide: XGSLDESFYDWFERQLGKK
modifications: N-terminal Ald (aldehyde from periodate oxidation of a serine); the two chains joined N-N through chemical linker 17 of Table 3
notes: also called synthetic RP9 homodimer S374
As to B1, the binding result in experiment [1] was “binds”.

B2: RP9 (peptide)
peptide: GSLDESFYDWFERQLGKK
modifications: also: biotin (b-RP9) or fluorescein (FITC-RP9) label where used, site not given here
notes: also called S371; b-RP9
The term IC50 denotes the concentration needed to halve the response being measured. A lower IC50 goes with higher potency. B2: the IC50 was found to be 0.03 nM in [2]; 10 nM in experiment [3]; 42 nM in [4]; 6 nM in experiment [5]; 44 nM in experiment [6].

GGTVWPGYEWLRNA [E8 (D120)]: the IC50 in [7] came to 755 nM; in experiment [3], 207 nM; in experiment [6], 2200 nM.

In the case of FHENFYDWFVQRVSKK (also called D117) [H2C], the IC50 in [2] worked out at 37 nM; in experiment [3] it was 50 nM; in [4] it was 1630 nM; in [5], 410 nM; in experiment [6] it was 700 nM.

B3: 538 (peptide)
peptide: MADYKDDDDKGSLDESFYDWFERQLGKKGGSGGSGGSGGSWLDQEWAWVQCEVYGRGCPSAAAGAPVPYPDPLEPRPG
notes: recombinant dimer with tags at both ends; also called RP9-12aa-D8
One may read the Kd as the concentration at which binding is half-saturated. B3: the Kd was 710 nM in experiment [8] and 0.08 nM in experiment [9]. In experiment [10], the “FFC Pot.” value is 10 nM.
